Source: PMC5283164

Tests used:
[1] = target: SNP-treated (S-nitrosylated) pea chloroplast 2-Cys Prx (Pisum sativum (pea)); assay: SEC; Superdex-200 HR 10/30, 50 mM Tris-HCl pH 7.5, 150 mM NaCl; DTT-reduced protein incubated with 750 uM SNP, excess removed
[2] = target: chloroplast 2-Cys Prx from pea (Pisum sativum), recombinant, not glutathionylated (Pisum sativum (pea)); assay: SEC; Superdex-200 HR 10/30, room temperature, 50 mM Tris-HCl pH 7.5, 150 mM NaCl; protein (50 uM) reduced with 10 mM DTT for 30 min, excess DTT removed
[3] = target: chloroplast 2-Cys Prx from pea (Pisum sativum), recombinant, not glutathionylated (Pisum sativum (pea)); assay: SEC; Superdex-200 HR 10/30, room temperature, 50 mM Tris-HCl pH 7.5, 150 mM NaCl, 0.5 mL/min; untreated (native) protein
[4] = target: glutathionylated pea mitochondrial Prx IIF (Cys59-SG, Cys84-SG) (Pisum sativum (pea)); assay: SEC; Superdex-200 HR 10/30, 50 mM Tris-HCl pH 7.5, 150 mM NaCl; DTT-reduced protein incubated with 5 mM GSNO at room temperature (different incubation times for 2-Cys Prx), excess removed
[5] = target: glutathionylated pea mitochondrial Prx IIF (Cys59-SG, Cys84-SG) (Pisum sativum (pea)); assay: SEC; Superdex-200 HR 10/30, 50 mM Tris-HCl pH 7.5, 150 mM NaCl; DTT-reduced protein incubated with 5 mM GSSG at 4 C for 24 h, excess removed
[6] = target: mitochondrial Prx IIF from pea (Pisum sativum), recombinant, not glutathionylated (Pisum sativum (pea)); assay: SEC; Superdex-200 HR 10/30, room temperature, 50 mM Tris-HCl pH 7.5, 150 mM NaCl; protein (50 uM) reduced with 10 mM DTT for 30 min, excess DTT removed
[7] = target: mitochondrial Prx IIF from pea (Pisum sativum), recombinant, not glutathionylated (Pisum sativum (pea)); assay: SEC; Superdex-200 HR 10/30, room temperature, 50 mM Tris-HCl pH 7.5, 150 mM NaCl, 0.5 mL/min; untreated (native) protein

SNP-treated (S-nitrosylated) pea chloroplast 2-Cys Prx (enzyme)
stoichiometry N [1]: 10

chloroplast 2-Cys Prx from pea (Pisum sativum), recombinant, not glutathionylated (enzyme)
stoichiometry N [2]: 10 | stoichiometry N [3]: 2

glutathionylated pea mitochondrial Prx IIF (Cys59-SG, Cys84-SG) (enzyme)
stoichiometry N [4]: 2 | stoichiometry N [5]: 2

mitochondrial Prx IIF from pea (Pisum sativum), recombinant, not glutathionylated (enzyme)
stoichiometry N [6]: 2 | stoichiometry N [7]: 6
